Test results reported in IntAct's records for PubMed 18555782.

Target: hsp7f_yeast SSE1 (UniProt P32589)
Sequence (P32589 whole entry): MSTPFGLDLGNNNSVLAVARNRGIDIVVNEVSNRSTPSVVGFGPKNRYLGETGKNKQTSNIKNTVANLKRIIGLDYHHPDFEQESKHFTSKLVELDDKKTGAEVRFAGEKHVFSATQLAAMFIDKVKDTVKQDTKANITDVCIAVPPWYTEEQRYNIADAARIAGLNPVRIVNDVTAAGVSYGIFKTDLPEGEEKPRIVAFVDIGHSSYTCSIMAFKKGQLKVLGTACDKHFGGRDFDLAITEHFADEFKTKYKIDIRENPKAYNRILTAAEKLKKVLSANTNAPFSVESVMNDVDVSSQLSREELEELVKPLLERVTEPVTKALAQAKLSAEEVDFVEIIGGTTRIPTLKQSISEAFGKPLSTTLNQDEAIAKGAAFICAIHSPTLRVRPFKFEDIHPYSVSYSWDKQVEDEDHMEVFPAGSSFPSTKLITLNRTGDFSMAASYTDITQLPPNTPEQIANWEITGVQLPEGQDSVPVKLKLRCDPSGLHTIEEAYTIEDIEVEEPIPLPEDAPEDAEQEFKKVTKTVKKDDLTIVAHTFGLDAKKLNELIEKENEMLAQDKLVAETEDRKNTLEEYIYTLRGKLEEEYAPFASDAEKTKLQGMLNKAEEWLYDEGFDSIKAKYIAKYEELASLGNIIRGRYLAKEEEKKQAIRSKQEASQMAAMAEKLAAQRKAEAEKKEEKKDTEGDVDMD

Question: For “Heat shock protein SSA1 (Saccharomyces cerevisiae), P10591 A297E”, which “effect of a mutation on the interaction” value is on record?
Answer: decreasing interaction

Question: “Heat shock protein SSA1 (Saccharomyces cerevisiae), P10591 Q31A” was tested. Which “effect of a mutation on the interaction” value did it give?
Answer: decreasing interaction
